The text below walks through data of paper PMC9848473, “The structure of DarB in complex with Rel^NTD reveals nonribosomal activation of Rel stringent factors” (Science Advances, 2023).

The target of the assay is full-length Bacillus subtilis Rel (RelBs) (Bacillus subtilis). The assay is described as follows: cell-based or functional assay.

B1: Bacillus subtilis DarB (natural protein, UniProt O31698 1-147, looked up)
chain: MISLQSDQLLEATVGQFMIEADKVAHVQVGNNLEHALLVLTKTGYTAIPVLDPSYRLHGLIGTNMIMNSIFGLERIEFEKLDQITVEEVMLTDIPRLHINDPIMKGFGMVINNGFVCVENDEQVFEGIFTRRVVLKELNKHIRSLNK
Regarding B1, the “rate of ^3H-ppGpp hydrolysis by RelBs saturated with DarB” value worked out at 5.5 fold.
